US5360895A, “Derivatized gold clusters and antibody-gold cluster conjugates” (priority 1992, dated 1994)

Assays:
[1] = Thermal stability of gold clusters; type: physicochemical
melanoma cells = test: Radioimmunoassay, cell binding of gold labeled F(ab')2 to melanoma cells (control); type: cell-based; conditions: 17-1A; in words
Experimental: (§1) Both of these methods were used to prepare F(ab')2 -Au11 conjugates using 17-1A mouse monoclonal antibody which is specific for human colorectal tumors. After preparation, this labeled antibody was tested to find if its immunoreactivity had been altered. A radioimmunoassay was performed using cell binding to cultured human colon carcinoma cells and to melanoma cells (the control).

melanoma cells (WM164) = test: In vitro cell binding of 17-1A-Au11 conjugates, control melanoma (radioactivity of gold); conditions: for % bound to control cells (melanoma): percent of applied radioactive gold bound after incubation and washing, average ± s.d. of 2 samples
Experimental: (§3) The 17-1A Fab' fragment-(radioactive gold)-undecagold cluster conjugate was incubated in vitro with tumor cells (LS180- a cell culture of human colon carcinoma) and non tumor cells (WM164 - a cell culture of melanoma as control) and the radioactivity of the gold was used to assay binding.
(§4) bound to cells after incubation and washing.
(§5) entry is an average (+ s.d.) of 2 samples.

[2] = tested on: human colon carcinoma cells (LS180); test: In vitro cell binding of 17-1A-Au11 conjugates, human colon carcinoma (radioactivity of gold); conditions: percent of applied radioactive gold bound after incubation and washing; average ± s.d. of 2 samples
Experimental: as §3, §4, §5

[3] = tested on: human colon carcinoma cells; test: Radioimmunoassay, cell binding of gold labeled F(ab')2 to cultured human colon carcinoma cells; type: cell-based; conditions: 17-1A; in words
Experimental: as §1

human colon carcinoma = test: In vivo biodistribution of radiogold cluster 17-1A conjugates in nude mice bearing human tumors; conditions: 24 hr after injection; for blood, % of injected dose per gram of tissue / bone, % of injected dose per gram of tissue / gut, % of injected dose per gram of tissue / heart, % of injected dose per gram of tissue / kidneys, % of injected dose per gram of tissue / liver, % of injected dose per gram of tissue / lung, % of injected dose per gram of tissue / muscle, % of injected dose per gram of tissue / spleen, % of injected dose per gram of tissue / stomach, % of injected dose per gram of tissue / tumor, % of injected dose per gram of tissue: normalized to 25 g animals
Experimental: Nude mice bearing human colon carcinoma or melanoma tumors were injected with radioactive gold clusters conjugated to anti-tumor antibodies. Two antibodies were gold labeled, one (17-1A) against the human colon carcinoma and another non-relevant antibody, H2 4B5 anti-influenza. The non-relevant tumor (melanoma) and non-relevant gold conjugated antibody (H2 4B5) served as controls. A total of 53 mice were used. In order to assess the efficacy of using gold labeled Fab' versus whole IgG, both types of antibody were labeled and tested. In addition, two crosslinking arms between the gold cluster and antibody were used, one, as described in the preparation example, was N-methoxycarbonyl maleimide (NMCM), whereas the other was n-maleimidobenzoyl-N-hydroxysuccinimide ester (MBS), This was to test if a different covalent crosslinker between the gold cluster and antibody or antibody fragment yielded conjugates with different stabilities or body distributions in vivo.
In vivo biodistribution of radiogold cluster 17-1A conjugates. Data,
after injection is expressed in % of injected dose per gram of tissue.
Tumor to normal tissue ratios are given in parentheses. Three or four
sample were averaged; normalized to 25 g animals.

[4] = tested on: Human colon carcinoma cells (cell line LS180); test: Silver enhanced staining of human colon carcinoma cells, light microscope; type: cell-based; conditions: approximately 45 minutes developer
Experimental: Human colon carcinoma cells (cell line LS180) were grown in tissue culture media. The cells were harvested with a brief trypsin treatment and centrifuged. They were then resuspended in phosphate buffered saline with 5% IgG free horse serum.
(§2) Assuming each call has approx. 10^6 antibody binding sites, a ten fold molar excess over this of undecagold cluster-labeled 17-1A monoclonal antibody was applied. Cells were incubated at room temperature for one hour on a wrist shaker device. The cells were then centrifuged at 1100 rpm for 5 minutes and the supernatent discarded. Additional buffer was added to resuspend the cells and after 3 minutes they were centrifuged again. Three of these washes were done. As a control, melanoma cells (cell line WM 164) were also prepared in a similar fashion. Cells were concentrated onto glass microscope slides using a Cytospin device. […] UV exposure for 5 minutes prior to development enhanced this color.

[5] = tested on: melanoma cells (cell line WM 164); test: Silver enhanced staining of control melanoma cells, light microscope; type: cell-based; conditions: approximately 45 minutes developer
Experimental: as §2

Row | Molecule | % bound to control cells (melanoma) (melanoma cells (WM164)) [%] | % bound to tumor cells (human colon carcinoma) [2] [%] | Tumor to normal tissue ratio, blood (human colon carcinoma) | Tumor to normal tissue ratio, bone (human colon carcinoma) | Tumor to normal tissue ratio, gut (human colon carcinoma) | Tumor to normal tissue ratio, heart (human colon carcinoma) | Tumor to normal tissue ratio, kidneys (human colon carcinoma) | Tumor to normal tissue ratio, liver (human colon carcinoma) | Tumor to normal tissue ratio, lung (human colon carcinoma) | Tumor to normal tissue ratio, muscle (human colon carcinoma) | Tumor to normal tissue ratio, spleen (human colon carcinoma) | Tumor to normal tissue ratio, stomach (human colon carcinoma) | blood, % of injected dose per gram of tissue (human colon carcinoma) | bone, % of injected dose per gram of tissue (human colon carcinoma) | gut, % of injected dose per gram of tissue (human colon carcinoma) | heart, % of injected dose per gram of tissue (human colon carcinoma) | kidneys, % of injected dose per gram of tissue (human colon carcinoma) | liver, % of injected dose per gram of tissue (human colon carcinoma) | lung, % of injected dose per gram of tissue (human colon carcinoma) | muscle, % of injected dose per gram of tissue (human colon carcinoma) | other results
1 | Au55 [P(PhCONHCH3)3 ]11 P(PhCONHCH3)2 [derivatized Au55 cluster, Au55 [P(PhCONHCH3)3 ]11 P(PhCONHCH3)2 [PhCONH(CH2)3 N(CO)2 (CH)2 ]] |  |  |  |  |  |  |  |  |  |  |  |  |  |  |  |  |  |  |  |  | temperature above which the cluster deteriorates rapidly [1]: above 70 °C
2 | F(ab')2 -Au11: F(ab')2 -Au11 conjugate of 17-1A mouse monoclonal antibody specific for human colorectal tumors (conjugate, chains of the INN, looked up, F(ab')2 undecagold cluster label, F(ab')2 -Au11 conjugate of 17-1A mouse monoclonal antibody specific for human colorectal tumors) VH: QVQLQQSGAELVRPGTSVKVSCKASGYAFTNYLIEWVKQRPGQGLEWIGVINPGSGGTNYNEKFKGKATLTADKSSSTAYMQLSSLTSDDSAVYFCARDGPWFAYWGQGTLVTVSA VL: NIVMTQSPKSMSMSVGERVTLTCKASENVVTYVSWYQQKPEQSPKLLIYGASNRYTGVPDRFTGSGSATDFTLTISSVQAEDLADYHCGQGYSYPYTFGGGTKLEIK | 0.30 ± 0.03 | 16.13 ± 0.02 | 1.5 | 3.5 | 5.3 | 3.4 | 0.1 | 0.8 | 1.8 | 8.6 | 1.3 | 9.1 | 5.6 ± 0.4 % of injected dose per gram of tissue | 2.4 ± 0.2 % of injected dose per gram of tissue | 1.6 ± 0.2 % of injected dose per gram of tissue | 3.2 ± 0.4 % of injected dose per gram of tissue | 117.0 ± 20 % of injected dose per gram of tissue | 10.5 ± 0.4 % of injected dose per gram of tissue | 4.6 ± 0.1 % of injected dose per gram of tissue | 0.98 ± 0.08 % of injected dose per gram of tissue | binding to the control cells (melanoma cells): no binding to the control cells; radioactive gold on the non-tumor cells (melanoma cells (WM164); WM164, text statement on Table 1, "or background for F(ab')2"): < 0.4%; binding to the tumor cells versus native unlabeled F(ab')2 [3]: virtually identical binding to the tumor cells as did native unlabeled F(ab')2; spleen, % of injected dose per gram of tissue (human colon carcinoma): 6.4 ± 0.8 % of injected dose per gram of tissue; stomach, % of injected dose per gram of tissue (human colon carcinoma): 0.93 ± 0.19 % of injected dose per gram of tissue; tumor, % of injected dose per gram of tissue (human colon carcinoma): 8.4 ± 0.6 % of injected dose per gram of tissue
3 | IgG-Au11: 17-1A whole IgG labeled with monomaleimidopropyl undecagold cluster, about 2 Au clusters per IgG (conjugate, chains of the INN, looked up, undecagold cluster label, 17-1A whole IgG labeled with monomaleimidopropyl undecagold cluster, about 2 Au clusters per IgG) VH: QVQLQQSGAELVRPGTSVKVSCKASGYAFTNYLIEWVKQRPGQGLEWIGVINPGSGGTNYNEKFKGKATLTADKSSSTAYMQLSSLTSDDSAVYFCARDGPWFAYWGQGTLVTVSA VL: NIVMTQSPKSMSMSVGERVTLTCKASENVVTYVSWYQQKPEQSPKLLIYGASNRYTGVPDRFTGSGSATDFTLTISSVQAEDLADYHCGQGYSYPYTFGGGTKLEIK | 0.77 ± 0.08 | 14.32 ± 0.92 | 2.5 | 3.6 | 7.2 | 3.1 | 0.5 | 1.7 | 2.3 | 10.0 | 0.8 | 11.6 | 3.2 ± 0.6 % of injected dose per gram of tissue | 2.2 ± 0.3 % of injected dose per gram of tissue | 1.1 ± 0.3 % of injected dose per gram of tissue | 2.6 ± 0.4 % of injected dose per gram of tissue | 17.1 ± 3.1 % of injected dose per gram of tissue | 4.6 ± 0.7 % of injected dose per gram of tissue | 3.4 ± 0.9 % of injected dose per gram of tissue | 0.80 ± 0.23 % of injected dose per gram of tissue | spleen, % of injected dose per gram of tissue (human colon carcinoma): 9.5 ± 0.3 % of injected dose per gram of tissue; stomach, % of injected dose per gram of tissue (human colon carcinoma): 0.69 ± 0.20 % of injected dose per gram of tissue; tumor, % of injected dose per gram of tissue (human colon carcinoma): 8.0 ± 3.2 % of injected dose per gram of tissue
4 | undecagold cluster-labeled 17-1A monoclonal antibody: undecagold cluster-labeled 17-1A monoclonal antibody (conjugate, chains of the INN, looked up, undecagold cluster label) VH: QVQLQQSGAELVRPGTSVKVSCKASGYAFTNYLIEWVKQRPGQGLEWIGVINPGSGGTNYNEKFKGKATLTADKSSSTAYMQLSSLTSDDSAVYFCARDGPWFAYWGQGTLVTVSA VL: NIVMTQSPKSMSMSVGERVTLTCKASENVVTYVSWYQQKPEQSPKLLIYGASNRYTGVPDRFTGSGSATDFTLTISSVQAEDLADYHCGQGYSYPYTFGGGTKLEIK |  |  |  |  |  |  |  |  |  |  |  |  |  |  |  |  |  |  |  |  | staining of cells after silver developer [4]: became brown in color, easily identifiable in the light microscope; staining of control cells after silver developer [5]: clear and showed virtually no staining
